# T1: Activin A (UniProt P08476 311-426)
# T1 construct: the embodiments speak of human activin A
# T1 sequence (looked up): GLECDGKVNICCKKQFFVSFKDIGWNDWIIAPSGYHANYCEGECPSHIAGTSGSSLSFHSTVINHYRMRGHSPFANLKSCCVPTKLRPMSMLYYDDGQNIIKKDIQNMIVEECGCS
# T2: Activin B (UniProt P09529 293-407)
# T2 construct: the embodiments speak of human activin B
# T2 sequence (looked up): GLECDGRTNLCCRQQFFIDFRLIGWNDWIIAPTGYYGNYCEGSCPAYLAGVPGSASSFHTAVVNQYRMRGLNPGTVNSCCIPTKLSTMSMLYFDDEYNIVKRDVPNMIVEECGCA
# T3: growth differentiation factor 11 (GDF11) (UniProt O95390 299-407)
# T3 construct: the embodiments speak of human GDF-11
# T3 sequence (looked up): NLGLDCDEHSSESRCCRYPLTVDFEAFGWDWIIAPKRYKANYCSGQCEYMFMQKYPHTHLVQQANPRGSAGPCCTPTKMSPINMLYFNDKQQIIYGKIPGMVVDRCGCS
# T4: BMP-9 (UniProt Q9UK05 320-429)
# T4 construct: the embodiments speak of human BMP9; also called bone morphogenetic protein 9
# T4 sequence (looked up): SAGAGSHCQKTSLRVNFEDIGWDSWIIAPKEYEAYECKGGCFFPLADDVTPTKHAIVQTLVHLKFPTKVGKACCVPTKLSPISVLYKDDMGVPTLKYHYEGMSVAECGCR
# What was measured:
# Assay in all cases: SPR, Biacore 3000; receptor captured on chip, ligand in solution
# Activin A = biological target: T1, Activin A
# Text: (§1) The Biacore 3000 was used to measure the kinetics of the interactions between the ActRIIa variants and the ligands Activin A, Activin B, growth differentiation factor 11 (GDF11), and BMP-9. ActRIIa variants were transiently expressed in HEK293 cells and purified from the conditioned media using Protein-A Sepharose chromatography. The ActRIIa variants were immobilized on the chip (CM4 or CM5) with capture antibodies ([…]) in flow cells 2-4 to ensure proper orientation. Flow cell 1 was used as a reference cell to subtract any nonspecific binding and bulk effects. HBS-EP+ buffer from GE Healthcare™ was used as a running buffer. Each ligand was run in a concentration series at 40 μl/min to avoid mass transport effects. The data was analyzed using Scrubber2 by BioLogic™ Software to calculate the KD of each interaction (Table 5).
# Activin B = biological target: T2, Activin B
# Text: as §1
# [1] = biological target: T3, growth differentiation factor 11 (GDF11)
# Text: as §1
# BMP-9 = biological target: T4, BMP-9
# Text: as §1
binder,measurement,setting,value
"ActRIIa/bΔ9 min variant (SEQ ID NO: 6) (receptor, not shown: a dimerising Fc or GST, Engineered variant of the human ActRIIa extracellular portion) AILGRSETQECLFYNANWELDRTNQTGVEPCEGEKDKRLHCFATWKNISGSIEIVKKGCWLDDINCYDRTDCVETKENPQVYFCCCEGNMCNEKFSYFPEMEVTQPTS",Kd,Activin A,0.31 nM
same,Kd,Activin B,0.088 nM
same,Kd,[1],0.114 nM
same,Kd,BMP-9,17 nM
"ActRIIa/b+ variant (SEQ ID NO: 150) (receptor, not shown: a dimerising Fc or GST) GAILGRSETQECLFYNANWELERTNQTGVERCEGEKDKRLHCYATWRNISGSIEIVAKGCWLDDFNCYDRTDCVETEENPQVYFCCCEGNMCNEKFSYFPEMEVTQPTS",binding result,[1],binds

# Reference: US20210030841A1 (KEROS THERAPEUTICS, published 2021)
